The values below come from patent publication US20220185895A1.

Assay [1] deals with human CD94 (Natural killer cells antigen CD94) (human) (UniProt Q13241). The experiment in a line: flow cytometry with APC MESF bead calibration, CD94dim T-LGLL patient PBMC, CD3-CD16+ NK cells [Cont.]. (A flow cytometer gives signals particle by particle.)
Assay [2] has the same target. In words: flow cytometry with APC MESF bead calibration, average over healthy donor PBMC, CD3+CD8+ (CD94+) T cells.
Assay [3] has the same target. The experiment in a line: flow cytometry, CD94bright T-LGLL patient PBMC, CD3+CD16- T lymphocytes [Cont.].
For assay [4] the target is unchanged. In words: flow cytometry, normal liver, CD45+CD3+CD8+ T cells.
The target is the same in assay [5]. In words: flow cytometry with APC MESF bead calibration, healthy donor PBL, CD3-/CD16+ NK cells.
The target is the same in assay [6]. The experiment in a line: flow cytometry, CD94dim T-LGLL patient PBMC, CD3+CD16- T lymphocytes [Cont.].
Assay [7] has the same target. The experiment in a line: flow cytometry, CLPD-NK patient PBMC, CD3+CD16+ T-LGL.
The target is the same in assay [8]. In words: flow cytometry with APC MESF bead calibration, average over healthy donor PBMC, CD3-CD16+ NK cells.
Assay [9] shares this target. In words: flow cytometry with APC MESF bead calibration, average over healthy donor PBMC, CD3-CD56+ NK cells.
Assay [10] has the same target. In words: flow cytometry with APC MESF bead calibration, CD94bright T-LGLL patient PBMC, CD3-CD16+ NK cells [Cont.].
The target is the same in assay [11]. In words: flow cytometry with APC MESF bead calibration, CD94bright T-LGLL patient PBMC, CD3+CD16- T lymphocytes [Cont.].
Assay [12] has the same target. The experiment in a line: flow cytometry with APC MESF bead calibration, healthy donor PBL, CD3+CD8+ T cells.
Assay [13] has the same target. The experiment in a line: flow cytometry, healthy donor PBL, CD3+CD8+ T cells.
For assay [14] the target is unchanged. The experiment in a line: flow cytometry with APC MESF bead calibration, CD94dim T-LGLL patient PBMC, CD3+CD16- T lymphocytes [Cont.].
Assay [15] has the same target. In words: flow cytometry with APC MESF bead calibration, average over healthy donor PBMC, CD3-CD57+ NK cells.
Assay [16] has the same target. The experiment in a line: flow cytometry with APC MESF bead calibration, normal liver, CD45+CD3+CD8+ T cells.
Assay [17] shares this target. The experiment in a line: flow cytometry, normal liver, CD45+CD3+CD4+ T cells.
For assay [18] the target is unchanged. In words: flow cytometry with APC MESF bead calibration, CLPD-NK patient PBMC, CD3+CD16+ T-LGL.
Assay [19] shares this target. In words: flow cytometry with APC MESF bead calibration, CLPD-NK patient PBMC, CD3+CD8+ T cells.
Assay [20] shares this target. The experiment in a line: flow cytometry with APC MESF bead calibration, CD94bright T-LGLL patient PBMC, CD3+CD16+ leukemic cells [Cont.].
The target is the same in assay [21]. The experiment in a line: flow cytometry with APC MESF bead calibration, normal liver, CD45+CD3+CD4+ T cells.
For assay [22] the target is unchanged. The experiment in a line: flow cytometry with APC MESF bead calibration, normal liver, NK cells (panel headed CD45+CD3+CD56+).
Assay [23] shares this target. The experiment in a line: flow cytometry with APC MESF bead calibration, healthy donor PBL, CD3-/CD56+ NK cells.
Assay [24] has the same target. In words: flow cytometry with APC MESF bead calibration, healthy donor PBL, CD3-/CD57+ NK cells.
The target of assay [25] is human NKG2A (NKG2-A/NKG2-B type II integral membrane protein) (human) (UniProt P26715). In words: cell-based or functional assay.
UniProt P26715, sequence (P26715 whole entry): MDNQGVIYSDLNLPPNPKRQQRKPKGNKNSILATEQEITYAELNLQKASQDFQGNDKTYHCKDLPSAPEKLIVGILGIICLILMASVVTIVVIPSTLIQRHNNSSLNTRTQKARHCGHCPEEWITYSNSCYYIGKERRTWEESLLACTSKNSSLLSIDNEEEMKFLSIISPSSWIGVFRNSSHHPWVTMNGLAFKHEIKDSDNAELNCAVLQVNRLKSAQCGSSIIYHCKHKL

UniProt Q13241, sequence (Q13241 whole entry): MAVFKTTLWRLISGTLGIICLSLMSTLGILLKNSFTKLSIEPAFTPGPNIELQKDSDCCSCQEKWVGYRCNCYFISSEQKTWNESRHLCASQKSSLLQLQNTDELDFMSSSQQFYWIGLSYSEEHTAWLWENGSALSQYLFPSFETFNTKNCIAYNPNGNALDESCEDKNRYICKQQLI

On to “anti-CD94 antibody clone HP-3D9, APC-conjugated (BD Bioscience 559876)”, for which the CD94 receptor number (receptors per cell) in assay [1] came to 14000; in assay [5], 45000; in [10], 51000; in assay [11] it was 172000; in assay [12] it was 28000; in [14] it was 33000. Besides, the CD94 receptor number (receptors per cell) came out at 97000 in assay [16]; 51000 in assay [18]; 28000 in assay [19]; 177000 in [20]; 55000 in assay [21]; 195000 in [22]. Further, the CD94 receptor number (receptors per cell) in [23] stood at 51000; in [24], 39000. Also, the Antibody binding capacity (receptors per cell) in assay [2] stood at 45000; in [8] it was 77000; in assay [9], 117000; in [15] it was 73000. The % positive cells is 31% in assay [3]; 25% in assay [4]; 14% in assay [6]; 16% in assay [7]; 30% in assay [13]; 13% in assay [17].

The substance anti-NKG2A Z199 fucosylated antibody displayed an ADCC assay, depletion of CD3-CD56bright NK cells in fresh healthy donor PBMCs, EC50 in [25] of 40 ng/mL.

In assay [25], “anti-NKG2A Z199 non-fucosylated antibody” showed an ADCC assay, depletion of CD3-CD16+ NK leukemic cells in frozen CLPD-NK patient PBMCs, EC50 of 3 ng/mL; an ADCC assay, depletion of CD3-CD56bright NK cells in fresh healthy donor PBMCs, EC50 of 3 ng/mL; an ADCC assay, potency against the fucosylated Z199 antibody of 13 times.
